{"source": "the supplement of paper PMC12042874", "assay": "amyloid nucleation score (Sup35N fusion, yeast selection) (log enrichment); library NNK2; higher = more nucleation; inactive = no reads after selection", "procedure,_shortened": "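Yeast lacking psi expressed peptides of 20 random codons fused to Sup35N, received 100 μM copper sulfate for 24 hours, and were then grown for 7 days at 30°C on medium lacking adenine and uracil. Illumina sequencing of input and output plasmid inserts provided the reads. Nucleation scores are DiMSum log enrichments of output over input, centred on the mode of non-aggregating sequences. Any sequence with under 100 input reads was excluded.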", "note": "± gives the uncertainty stated by the source.", "data": [{"substance": "CTLLFTLSYSVS", "values": [{"measurement": "amyloid nucleation score", "result": "4.245 ± 0.037"}]}, {"substance": "RFYDFLFLFIPSRIELIMFR", "values": [{"measurement": "amyloid nucleation score", "result": "-0.729 ± 1.1"}]}, {"substance": "DFYGYRKDFFLEQCPACSLY", "values": [{"measurement": "amyloid nucleation score", "result": "-1.38 ± 0.78"}]}, {"substance": "MRTNRLKSVV", "values": [{"measurement": "amyloid nucleation score", "result": "0.275 ± 0.33"}]}, {"substance": "SSLGSSGAEKSRIGYIVIER", "values": [{"measurement": "amyloid nucleation score", "result": "0.261 ± 0.77"}]}, {"substance": "GMLRGSK", "values": [{"measurement": "amyloid nucleation score", "result": "-0.359 ± 0.39"}]}, {"substance": "IGWGYRWVRWL", "values": [{"measurement": "amyloid nucleation score", "result": "-0.415 ± 0.5"}]}, {"substance": "SNCSLMGYCMYAYNGSDTGC", "values": [{"measurement": "amyloid nucleation score", "result": "4.58 ± 0.11"}]}, {"substance": "INNQGFIRPDNDSCYRFWIS", "values": [{"measurement": "amyloid nucleation score", "result": "inactive"}]}, {"substance": "IRYVMHWFISAVILTTPPCG", "values": [{"measurement": "amyloid nucleation score", "result": "0.355 ± 0.8"}]}, {"substance": "QGIRALRLYKFLTTSLILLI", "values": [{"measurement": "amyloid nucleation score", "result": "-1.42 ± 1.1"}]}, {"substance": "MCTELYEDGNKPTTRSDRSA", "values": [{"measurement": "amyloid nucleation score", "result": "3.21 ± 0.1"}]}, {"substance": "LSLVEIFLGMRSLEVFCWVE", "values": [{"measurement": "amyloid nucleation score", "result": "-0.709 ± 0.28"}]}, {"substance": "PHLEGVSCVVVKHQLRS", "values": [{"measurement": "amyloid nucleation score", "result": "0.82 ± 0.17"}]}, {"substance": "AISDGPET", "values": [{"measurement": "amyloid nucleation score", "result": "0.746 ± 0.43"}]}, {"substance": "VFYELGLFLLNFVVLHASED", "values": [{"measurement": "amyloid nucleation score", "result": "1.68 ± 0.18"}]}, {"substance": "LQYFLGAFAILFMCLLWVLQ", "values": [{"measurement": "amyloid nucleation score", "result": "0.381 ± 0.64"}]}, {"substance": "LRYPKRGFPNHVLSIESKLD", "values": [{"measurement": "amyloid nucleation score", "result": "-0.479 ± 1"}]}, {"substance": "SNIGCRKIWTSLRSMDLIIG", "values": [{"measurement": "amyloid nucleation score", "result": "-0.006 ± 0.65"}]}, {"substance": "SYGFFMVWIEGYFLVMASRI", "values": [{"measurement": "amyloid nucleation score", "result": "inactive"}]}, {"substance": "TFVITLNGHSCQVGTITPRN", "values": [{"measurement": "amyloid nucleation score", "result": "8.012 ± 0.04"}]}, {"substance": "ECRFKDTATRFRQSLRFYNM", "values": [{"measurement": "amyloid nucleation score", "result": "inactive"}]}, {"substance": "TEQICGNMWSLYESFNFINS", "values": [{"measurement": "amyloid nucleation score", "result": "-0.474 ± 1.1"}]}, {"substance": "VRSSPTRVRERRSIILVLNC", "values": [{"measurement": "amyloid nucleation score", "result": "0.594 ± 0.81"}]}, {"substance": "STMSFFSIGKLPEIVVGDSY", "values": [{"measurement": "amyloid nucleation score", "result": "-1.24 ± 0.75"}]}, {"substance": "LNSYPASV", "values": [{"measurement": "amyloid nucleation score", "result": "inactive"}]}, {"substance": "RLFQE", "values": [{"measurement": "amyloid nucleation score", "result": "-0.153 ± 1.1"}]}, {"substance": "YICRGASGIKSQLREWDVAH", "values": [{"measurement": "amyloid nucleation score", "result": "-0.269 ± 0.74"}]}, {"substance": "LVRSVFIRYCISIPCRTRVL", "values": [{"measurement": "amyloid nucleation score", "result": "0.034 ± 1.1"}]}, {"substance": "RYVYRTVGWHQFLCGTVLFW", "values": [{"measurement": "amyloid nucleation score", "result": "0.588 ± 0.16"}]}, {"substance": "EYRSDCMDYLGDVCWCPNIL", "values": [{"measurement": "amyloid nucleation score", "result": "inactive"}]}, {"substance": "ISSEWEYHDT", "values": [{"measurement": "amyloid nucleation score", "result": "inactive"}]}, {"substance": "RFYLVIFFVTL", "values": [{"measurement": "amyloid nucleation score", "result": "inactive"}]}, {"substance": "ANVWRSLFAFTIANVTIPR", "values": [{"measurement": "amyloid nucleation score", "result": "5.714 ± 0.045"}]}, {"substance": "PHSLVLSGWHNLDAFFNATL", "values": [{"measurement": "amyloid nucleation score", "result": "inactive"}]}, {"substance": "VAVTMHYDNFHCLLCCCSTL", "values": [{"measurement": "amyloid nucleation score", "result": "8.384 ± 0.078"}]}, {"substance": "NTRCRSVTLMLGFSMESKVH", "values": [{"measurement": "amyloid nucleation score", "result": "0.76 ± 0.54"}]}, {"substance": "VFRGAVSWTVLIGDNKVVLY", "values": [{"measurement": "amyloid nucleation score", "result": "0.674 ± 0.45"}]}, {"substance": "RYPLVKFQCYTGNYGKFGNL", "values": [{"measurement": "amyloid nucleation score", "result": "3.01 ± 0.071"}]}, {"substance": "RKQNTVQWSNHFLHCKMPST", "values": [{"measurement": "amyloid nucleation score", "result": "inactive"}]}, {"substance": "LSRFNFSNVLLRRNMSARA", "values": [{"measurement": "amyloid nucleation score", "result": "-1.78 ± 0.62"}]}, {"substance": "RHQCIIWDIISLPGIWLCRR", "values": [{"measurement": "amyloid nucleation score", "result": "1.13 ± 0.23"}]}, {"substance": "KHSWSIALV", "values": [{"measurement": "amyloid nucleation score", "result": "0.239 ± 0.65"}]}, {"substance": "EYGVAT", "values": [{"measurement": "amyloid nucleation score", "result": "1.17 ± 0.18"}]}, {"substance": "RWKTVFRVYVEQKALPDLIC", "values": [{"measurement": "amyloid nucleation score", "result": "5.85 ± 0.087"}]}, {"substance": "SGFLIRKHAKLYKPDQPLLV", "values": [{"measurement": "amyloid nucleation score", "result": "0.101 ± 0.54"}]}, {"substance": "DWVINS", "values": [{"measurement": "amyloid nucleation score", "result": "-0.462 ± 0.78"}]}, {"substance": "NQLIGHVFSFVDKSKSFSSS", "values": [{"measurement": "amyloid nucleation score", "result": "0.243 ± 0.56"}]}, {"substance": "HVNRGYSLVTPRMEVDWQLS", "values": [{"measurement": "amyloid nucleation score", "result": "1.42 ± 0.15"}]}, {"substance": "KMPGFLVCW", "values": [{"measurement": "amyloid nucleation score", "result": "inactive"}]}, {"substance": "LFFALSMCSIF", "values": [{"measurement": "amyloid nucleation score", "result": "6.348 ± 0.032"}]}, {"substance": "NSHFALDGKSW", "values": [{"measurement": "amyloid nucleation score", "result": "-0.711 ± 0.39"}]}, {"substance": "LAKADPWHLKMLFSAMLRQD", "values": [{"measurement": "amyloid nucleation score", "result": "0.332 ± 0.26"}]}, {"substance": "TVCWSLFDDCSFYFRCNAFE", "values": [{"measurement": "amyloid nucleation score", "result": "8.42 ± 0.042"}]}, {"substance": "LYNRLACL", "values": [{"measurement": "amyloid nucleation score", "result": "1.86 ± 0.084"}]}, {"substance": "FVEGLYWVSVVILG", "values": [{"measurement": "amyloid nucleation score", "result": "-1.58 ± 1"}]}, {"substance": "ILWGERRIDSRSWKIVARYF", "values": [{"measurement": "amyloid nucleation score", "result": "-0.664 ± 1.1"}]}, {"substance": "RRLGYPYFTR", "values": [{"measurement": "amyloid nucleation score", "result": "-0.743 ± 0.44"}]}, {"substance": "YVSSVAIAFGLSVGLAYYPP", "values": [{"measurement": "amyloid nucleation score", "result": "5.26 ± 0.059"}]}, {"substance": "VKFVLQVYYGVPST", "values": [{"measurement": "amyloid nucleation score", "result": "0.307 ± 0.27"}]}, {"substance": "DFLNWEDFCIMSECWNSTVQ", "values": [{"measurement": "amyloid nucleation score", "result": "inactive"}]}, {"substance": "FCSHVGLVYCTYIMMRVSMR", "values": [{"measurement": "amyloid nucleation score", "result": "5.501 ± 0.034"}]}, {"substance": "CSFVLVFVIIQ", "values": [{"measurement": "amyloid nucleation score", "result": "3.49 ± 0.12"}]}, {"substance": "GLKDAIMYSVVTLIRYRQDD", "values": [{"measurement": "amyloid nucleation score", "result": "-0.809 ± 0.56"}]}, {"substance": "LNEIERSSD", "values": [{"measurement": "amyloid nucleation score", "result": "0.755 ± 0.3"}]}, {"substance": "YMTVLLMSVFNWSQSRRPP", "values": [{"measurement": "amyloid nucleation score", "result": "3.55 ± 0.077"}]}, {"substance": "GISVICLYGVQYSDVGGVNL", "values": [{"measurement": "amyloid nucleation score", "result": "5.098 ± 0.043"}]}, {"substance": "NDFTFLMFDM", "values": [{"measurement": "amyloid nucleation score", "result": "1.25 ± 0.44"}]}, {"substance": "RDVLTDNQNAIRLLRGVSAY", "values": [{"measurement": "amyloid nucleation score", "result": "0.298 ± 0.19"}]}, {"substance": "TSFCTSVIGIVIHQDFAVDG", "values": [{"measurement": "amyloid nucleation score", "result": "5.574 ± 0.045"}]}, {"substance": "VPSFRYCTSYQTATSLR", "values": [{"measurement": "amyloid nucleation score", "result": "0.17 ± 0.33"}]}, {"substance": "SEANKSGVSVGWCDCAVGCV", "values": [{"measurement": "amyloid nucleation score", "result": "0.734 ± 0.21"}]}, {"substance": "VRALRQPAT", "values": [{"measurement": "amyloid nucleation score", "result": "0.567 ± 0.27"}]}, {"substance": "EVSHAIYRWTLEKYCWNCHV", "values": [{"measurement": "amyloid nucleation score", "result": "0.09 ± 0.24"}]}, {"substance": "PVSGGVNFNNRLLITWRAFW", "values": [{"measurement": "amyloid nucleation score", "result": "0.885 ± 0.58"}]}, {"substance": "PLVAMGMIINNI", "values": [{"measurement": "amyloid nucleation score", "result": "-1.74 ± 0.48"}]}, {"substance": "THPEFSIPIGRHHYGG", "values": [{"measurement": "amyloid nucleation score", "result": "-0.836 ± 0.29"}]}, {"substance": "YLSDNHYWCWSYESF", "values": [{"measurement": "amyloid nucleation score", "result": "-0.725 ± 0.41"}]}, {"substance": "VFLGVSGETVNSTGYFTGMN", "values": [{"measurement": "amyloid nucleation score", "result": "-2.13 ± 1.1"}]}, {"substance": "DSSVSAPMSSFDRWTTHCVL", "values": [{"measurement": "amyloid nucleation score", "result": "0.373 ± 0.43"}]}, {"substance": "GKYSLTTCAR", "values": [{"measurement": "amyloid nucleation score", "result": "0.449 ± 0.8"}]}, {"substance": "PTSWFRSNMKWFYPVSQPHW", "values": [{"measurement": "amyloid nucleation score", "result": "-0.434 ± 0.64"}]}, {"substance": "YSVYKTLA", "values": [{"measurement": "amyloid nucleation score", "result": "-1.51 ± 0.78"}]}, {"substance": "WWLKALPRVILARLVSRGQG", "values": [{"measurement": "amyloid nucleation score", "result": "0.458 ± 0.29"}]}, {"substance": "MIGSGVW", "values": [{"measurement": "amyloid nucleation score", "result": "-1.07 ± 0.78"}]}, {"substance": "QGGLDRMYGSDVVYFKDTYP", "values": [{"measurement": "amyloid nucleation score", "result": "0.379 ± 0.54"}]}]}
